The record followed here is patent publication US20200164059A1 (FRED HUTCHINSON CANCER RESEARCH CENTER, published 2020).

One may read the Kd as the concentration at which binding is half-saturated. A word on the koff: it is the rate constant with which the complex falls apart. By kon is commonly meant the rate constant with which the complex forms.

The target in test [1] is gH T62A/gL, recombinant ectodomain (Epstein Barr virus).
Test [2] concerns the target T1, EBV gH/gL heterodimer, recombinant ectodomain (Epstein Barr virus).
T1 construct: range 19-679;range 24-137
Briefly: BLI kinetics, pH 5.0, ligand AMMO1 Mab, analyte gH/gL; KA M^-1 x10^7.

Test [3] deals with T1, EBV gH/gL heterodimer, recombinant …. Briefly: BLI kinetics, pH 5.0, ligand AMMO1 Mab, analyte gH/gL; koff (1/s) x10^-3. (In BLI a coated tip is dipped into the sample, and binding shifts an interference pattern.)
Test [4] shares this target. Briefly: BLI kinetics, pH 7.4, ligand AMMO1 Mab, analyte gH/gL; KD M x10^-9.
For test [5] the target is unchanged. Briefly: BLI kinetics, pH 5.0, ligand AMMO1 Mab, analyte gH/gL; kon (1/Ms) x10^5.
For test [6] the target is unchanged. Briefly: BLI kinetics, pH 5.0, ligand AMMO1 Mab, analyte gH/gL; KD M x10^-9.
Test [7] shares this target. Briefly: BLI kinetics, pH 7.4, ligand AMMO1 Mab, analyte gH/gL; koff (1/s) x10^-3.
The target is the same in test [8]. Briefly: BLI kinetics, pH 7.4, ligand AMMO1 Mab, analyte gH/gL; kon (1/Ms) x10^5.
In test [9] the target is gH/gL on EBV virions (Epstein Barr virus, UniProt P03231 19-706; P03212 23-137). Briefly: cell-based or functional assay.
The target in test [10] is T1, EBV gH/gL heterodimer, recombinant …. Briefly: BLI kinetics, pH 7.4, ligand AMMO1 Mab, analyte gH/gL; KA M^-1 x10^7.

B1: AMMO1 (antibody, V domains shown)
VH: QVQLVQSGADVKKPGASVKVSCKASGYTFIHFGISWVRQAPGQGLEWMGWIDTNNGNTNYAQSLQGRVTMTTDTSTGTAYMELRSLSTDDTAVYFCARALEMGHRSGFPFDYWGQGVLVTVSP
VL: SYELTQPPSVSVAPGQRATITCGGHNIGAKNVHWYQQKPGQAPVLVIQYDSDRPSGIPERFSGSNSGSTATLTISRVEAGDEADYYCQVWDSGRGHPLYVFGGGTKVTVL
notes: also called WT AMMO1; anti-gH/gL MAb AMMO1
In the case of B1, the Ka came out at 5.85e+09 M⁻¹ in test [1], 7.84e+09 M⁻¹ in test [2] and 8.63e+09 M⁻¹ in [10]. For the same molecule, the Kd in [1] came to 0.17 nM; in [4] it was 0.12 nM; in test [6] it was 0.13 nM. Also, the figures for the koff in [1], in [3] and in [7] were 0.000135 s⁻¹, 7.31e-05 s⁻¹ and 3.87e-05 s⁻¹, respectively. Also, the kon worked out at 789000 M⁻¹ s⁻¹ in test [1], 573000 M⁻¹ s⁻¹ in [5] and 334000 M⁻¹ s⁻¹ in test [8]. In addition, in [9], the “neutralization of B95.8/F EBV infection of B (Raji) cells, IC50” value is 0.16 mg/L.
